# Assay results: the supplement of paper PMC10065799, “High-throughput profiling of sequence recognition by tyrosine kinases and SH2 domains using bacterial peptide display” (eLife, 2023)
# How the values were obtained:
# [1] = target: Jak2 (UniProt O60674); experiment: phosphorylation enrichment, bacterial display (enrichment ratio); higher = better substrate or ligand; peptides without Tyr show the background
# [2] = target: Fes (UniProt P07332); experiment: as above
# [3] = test system: AncSZ; experiment: as above
# [4] = test system: c-Src; experiment: as above
# [5] = target: FGFR1 (UniProt P11362); experiment: as above
# [6] = test system: c-Abl (mouse); experiment: as above
# [7] = target: MERTK (UniProt Q12866); experiment: as above
# [8] = target: Hck (UniProt P08631); experiment: as above
# [9] = target: EPHB1 (UniProt P54762); experiment: as above
# [10] = test system: Fer (mouse); experiment: as above
# [11] = target: Fyn (UniProt P06241); experiment: as above
# [12] = target: EPHB2 (UniProt P29323); experiment: as above
# [13] = target: FGFR3 (UniProt P22607); experiment: as above
# [14] = target: c-Src SH2; experiment: SH2 binding enrichment of the phosphorylated peptide, bacterial display (enrichment ratio); higher = better substrate or ligand; peptides without Tyr show the background
# [15] = target: Grb2 SH2 (UniProt P62993); experiment: as above
# [16] = target: SHP2-C SH2; experiment: as above
# 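For SH2 binding enrichment of the phosphorylated peptide, bacterial display in this document: peptide library displayed on the E. coli surface as eCPX fusions, selected cells deep-sequenced, score is each peptide's frequency after selection divided by its frequency in the input.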
# 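For phosphorylation enrichment, bacterial display in this document: 11-residue human phosphosite peptides and single-mutation variants displayed on the E. coli surface, counted by deep sequencing, each peptide's frequency after selection divided by its frequency in the unselected input library; frequency after pTyr selection over input frequency; kinase dosed for 20-30% of maximal phosphorylation in three min.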
# Sequence of Fes (P07332 whole entry, looked up): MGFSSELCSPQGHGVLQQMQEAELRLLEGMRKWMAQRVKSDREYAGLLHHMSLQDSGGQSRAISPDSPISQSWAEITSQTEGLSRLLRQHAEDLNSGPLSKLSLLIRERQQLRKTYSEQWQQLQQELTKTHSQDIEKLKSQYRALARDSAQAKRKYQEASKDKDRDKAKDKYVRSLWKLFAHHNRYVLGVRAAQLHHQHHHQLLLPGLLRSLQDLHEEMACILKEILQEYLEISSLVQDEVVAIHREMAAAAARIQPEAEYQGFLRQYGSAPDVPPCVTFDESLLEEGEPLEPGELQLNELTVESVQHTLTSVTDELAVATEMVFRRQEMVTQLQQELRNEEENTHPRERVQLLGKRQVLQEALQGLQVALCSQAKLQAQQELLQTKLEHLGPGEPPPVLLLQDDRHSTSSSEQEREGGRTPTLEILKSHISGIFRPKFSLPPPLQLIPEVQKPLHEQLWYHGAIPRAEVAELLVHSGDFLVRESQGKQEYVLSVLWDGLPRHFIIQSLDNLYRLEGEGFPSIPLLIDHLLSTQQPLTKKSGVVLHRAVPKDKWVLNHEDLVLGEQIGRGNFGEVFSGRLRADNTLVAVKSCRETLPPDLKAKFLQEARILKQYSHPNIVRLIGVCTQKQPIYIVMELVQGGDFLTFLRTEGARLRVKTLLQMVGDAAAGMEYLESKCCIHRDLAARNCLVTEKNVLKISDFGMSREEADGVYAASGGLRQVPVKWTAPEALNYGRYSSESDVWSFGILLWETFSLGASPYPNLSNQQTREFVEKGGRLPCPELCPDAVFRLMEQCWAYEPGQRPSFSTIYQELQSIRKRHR
# Sequence of EPHB1 (P54762 whole entry, looked up): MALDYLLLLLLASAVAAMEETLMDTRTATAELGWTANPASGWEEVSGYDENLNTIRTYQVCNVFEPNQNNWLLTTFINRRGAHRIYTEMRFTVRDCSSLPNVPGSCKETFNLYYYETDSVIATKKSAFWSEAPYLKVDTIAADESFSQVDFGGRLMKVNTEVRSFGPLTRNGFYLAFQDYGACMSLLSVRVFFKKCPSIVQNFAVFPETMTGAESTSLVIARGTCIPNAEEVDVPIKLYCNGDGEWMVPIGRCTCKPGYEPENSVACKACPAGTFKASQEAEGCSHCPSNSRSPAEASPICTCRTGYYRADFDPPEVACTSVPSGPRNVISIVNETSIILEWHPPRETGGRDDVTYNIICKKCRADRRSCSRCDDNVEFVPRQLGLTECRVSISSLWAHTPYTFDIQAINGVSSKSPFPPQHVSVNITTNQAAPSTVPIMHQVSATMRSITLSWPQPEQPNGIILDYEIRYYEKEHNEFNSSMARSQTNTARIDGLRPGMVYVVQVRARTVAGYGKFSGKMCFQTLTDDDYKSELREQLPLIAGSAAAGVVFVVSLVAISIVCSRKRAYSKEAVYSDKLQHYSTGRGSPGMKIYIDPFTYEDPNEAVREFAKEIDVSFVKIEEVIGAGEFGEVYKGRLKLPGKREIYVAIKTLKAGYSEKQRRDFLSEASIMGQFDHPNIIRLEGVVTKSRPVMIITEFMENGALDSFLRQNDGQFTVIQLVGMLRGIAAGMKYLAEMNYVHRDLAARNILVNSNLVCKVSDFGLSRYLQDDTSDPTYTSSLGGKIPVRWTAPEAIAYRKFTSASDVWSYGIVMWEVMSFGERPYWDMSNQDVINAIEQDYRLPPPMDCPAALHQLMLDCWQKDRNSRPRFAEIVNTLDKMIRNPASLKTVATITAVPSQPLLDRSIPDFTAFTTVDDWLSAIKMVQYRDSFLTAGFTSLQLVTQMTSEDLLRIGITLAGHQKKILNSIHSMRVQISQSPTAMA
# Sequence of Fyn (P06241 whole entry, looked up): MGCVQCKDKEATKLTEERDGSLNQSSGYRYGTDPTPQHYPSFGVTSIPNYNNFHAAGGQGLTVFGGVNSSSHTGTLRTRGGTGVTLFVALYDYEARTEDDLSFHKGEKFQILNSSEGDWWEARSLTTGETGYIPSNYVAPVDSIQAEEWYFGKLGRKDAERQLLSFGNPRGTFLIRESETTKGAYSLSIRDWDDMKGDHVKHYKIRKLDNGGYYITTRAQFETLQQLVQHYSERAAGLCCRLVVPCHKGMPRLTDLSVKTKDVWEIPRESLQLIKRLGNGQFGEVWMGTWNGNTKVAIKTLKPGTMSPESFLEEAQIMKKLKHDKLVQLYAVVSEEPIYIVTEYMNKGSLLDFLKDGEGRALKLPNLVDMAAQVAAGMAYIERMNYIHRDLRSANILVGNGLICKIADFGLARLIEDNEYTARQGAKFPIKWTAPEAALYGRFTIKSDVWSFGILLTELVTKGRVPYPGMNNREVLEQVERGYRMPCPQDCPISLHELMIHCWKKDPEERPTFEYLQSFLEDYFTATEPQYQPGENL
# Sequence of FGFR3 (P22607 whole entry, looked up): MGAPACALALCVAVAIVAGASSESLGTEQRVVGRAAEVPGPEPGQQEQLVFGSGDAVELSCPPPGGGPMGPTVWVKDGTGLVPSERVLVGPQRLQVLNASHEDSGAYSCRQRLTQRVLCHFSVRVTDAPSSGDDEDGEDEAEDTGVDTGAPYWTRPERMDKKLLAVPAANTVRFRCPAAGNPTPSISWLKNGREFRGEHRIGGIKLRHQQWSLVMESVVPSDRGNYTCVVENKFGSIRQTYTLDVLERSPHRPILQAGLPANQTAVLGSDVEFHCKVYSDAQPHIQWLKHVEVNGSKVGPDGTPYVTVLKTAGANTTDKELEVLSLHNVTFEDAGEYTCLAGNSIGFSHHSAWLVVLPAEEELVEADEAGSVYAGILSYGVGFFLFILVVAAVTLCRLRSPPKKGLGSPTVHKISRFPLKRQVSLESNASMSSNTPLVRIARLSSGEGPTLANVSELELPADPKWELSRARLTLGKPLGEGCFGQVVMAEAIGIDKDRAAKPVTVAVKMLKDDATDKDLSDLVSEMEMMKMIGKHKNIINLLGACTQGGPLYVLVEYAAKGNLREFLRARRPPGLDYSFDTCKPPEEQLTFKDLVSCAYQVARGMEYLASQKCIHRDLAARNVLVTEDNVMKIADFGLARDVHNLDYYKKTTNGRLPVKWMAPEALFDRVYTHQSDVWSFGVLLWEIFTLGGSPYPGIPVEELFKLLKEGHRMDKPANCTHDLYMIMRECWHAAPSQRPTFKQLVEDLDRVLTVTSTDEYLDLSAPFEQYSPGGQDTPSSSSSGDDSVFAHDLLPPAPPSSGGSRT
# Sequence of MERTK (Q12866 whole entry, looked up): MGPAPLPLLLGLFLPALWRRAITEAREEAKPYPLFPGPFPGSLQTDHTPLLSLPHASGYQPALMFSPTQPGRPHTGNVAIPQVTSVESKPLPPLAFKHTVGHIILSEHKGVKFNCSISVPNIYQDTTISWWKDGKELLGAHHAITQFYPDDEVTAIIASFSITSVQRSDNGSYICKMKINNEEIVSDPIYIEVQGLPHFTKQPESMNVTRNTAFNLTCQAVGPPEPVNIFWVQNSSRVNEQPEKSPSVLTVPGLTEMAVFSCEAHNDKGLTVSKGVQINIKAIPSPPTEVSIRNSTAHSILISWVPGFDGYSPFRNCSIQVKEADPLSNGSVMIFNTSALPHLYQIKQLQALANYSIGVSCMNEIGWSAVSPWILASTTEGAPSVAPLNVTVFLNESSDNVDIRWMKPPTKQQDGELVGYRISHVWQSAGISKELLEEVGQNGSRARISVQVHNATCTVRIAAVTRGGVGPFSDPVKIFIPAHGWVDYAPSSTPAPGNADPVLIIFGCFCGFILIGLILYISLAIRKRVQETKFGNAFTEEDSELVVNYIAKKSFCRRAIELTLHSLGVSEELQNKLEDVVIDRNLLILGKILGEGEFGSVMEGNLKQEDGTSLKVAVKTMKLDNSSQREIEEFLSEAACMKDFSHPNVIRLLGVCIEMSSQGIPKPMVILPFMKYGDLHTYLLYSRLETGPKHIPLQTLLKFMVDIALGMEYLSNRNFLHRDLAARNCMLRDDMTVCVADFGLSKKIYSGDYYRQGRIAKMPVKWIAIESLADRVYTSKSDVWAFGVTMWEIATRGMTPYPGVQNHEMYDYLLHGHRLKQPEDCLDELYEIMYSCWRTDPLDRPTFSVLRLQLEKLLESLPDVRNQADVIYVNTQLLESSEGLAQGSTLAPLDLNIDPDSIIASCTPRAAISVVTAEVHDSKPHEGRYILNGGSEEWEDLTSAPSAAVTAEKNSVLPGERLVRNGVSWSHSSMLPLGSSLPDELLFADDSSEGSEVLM
# Sequence of FGFR1 (P11362 whole entry, looked up): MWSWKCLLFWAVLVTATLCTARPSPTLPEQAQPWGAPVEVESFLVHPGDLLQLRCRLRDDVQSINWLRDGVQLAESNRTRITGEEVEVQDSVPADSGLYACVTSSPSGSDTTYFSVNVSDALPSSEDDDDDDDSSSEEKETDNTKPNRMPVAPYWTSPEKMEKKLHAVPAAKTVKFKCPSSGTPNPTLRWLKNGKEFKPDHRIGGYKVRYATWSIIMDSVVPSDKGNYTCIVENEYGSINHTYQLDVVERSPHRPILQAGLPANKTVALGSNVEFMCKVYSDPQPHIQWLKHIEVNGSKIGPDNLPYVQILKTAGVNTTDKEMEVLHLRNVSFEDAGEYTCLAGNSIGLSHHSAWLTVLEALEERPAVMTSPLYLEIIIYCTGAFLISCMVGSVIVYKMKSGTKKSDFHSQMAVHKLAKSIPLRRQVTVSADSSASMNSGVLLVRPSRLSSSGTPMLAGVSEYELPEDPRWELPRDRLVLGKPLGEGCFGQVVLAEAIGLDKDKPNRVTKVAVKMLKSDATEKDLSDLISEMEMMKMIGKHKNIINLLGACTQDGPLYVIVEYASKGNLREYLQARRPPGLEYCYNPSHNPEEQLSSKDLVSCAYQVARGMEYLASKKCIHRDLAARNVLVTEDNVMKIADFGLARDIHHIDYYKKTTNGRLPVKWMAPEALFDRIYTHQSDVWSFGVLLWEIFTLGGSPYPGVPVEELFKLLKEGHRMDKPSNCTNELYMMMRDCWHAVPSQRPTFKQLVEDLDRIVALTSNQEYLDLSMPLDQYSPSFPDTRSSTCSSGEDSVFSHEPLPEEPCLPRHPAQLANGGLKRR
Sequence,SH2 binding enrichment [14],SH2 binding enrichment [15],SH2 binding enrichment [16],phosphorylation enrichment [1],phosphorylation enrichment [2],phosphorylation enrichment [3],phosphorylation enrichment [4],phosphorylation enrichment [5],phosphorylation enrichment [6],phosphorylation enrichment [7],phosphorylation enrichment [8],phosphorylation enrichment [9],phosphorylation enrichment [10],phosphorylation enrichment [11],phosphorylation enrichment [12],phosphorylation enrichment [13]
GKFRMYVAVWT [F13A1_Y161],0.5,0.997,0.619,1.13,1.1,1.14,0.342,0.479,0.762,0.357,0.365,0.508,0.501,0.377,0.604,0.665
GLGVTYEQALA [MAP2_Y996],0.572,0.784,0.495,0.724,0.686,0.712,0.503,0.437,1.18,0.372,0.439,0.48,0.423,0.464,0.471,0.477
GSETPYVDRTP [ESS2_Y335],0.573,0.814,0.719,0.813,0.821,0.711,0.453,0.488,0.603,0.466,0.429,0.408,0.409,0.451,0.477,0.553
GVRLFYRVMES [RB1_Y454_YF],0.429,0.624,0.684,1.38,1.42,1.29,0.39,0.488,0.83,0.381,0.541,0.655,0.517,0.448,0.576,0.815
GVRTIYTIDGS [DCLK2_Y124],0.521,0.968,0.941,0.69,0.846,0.803,1.6,0.581,0.5,0.553,0.697,0.563,0.52,1.38,0.507,0.506
HAVEDYQAIVD [CCT7_Y263_T259A],0.696,1.09,0.768,1.25,1.47,1.54,0.942,0.864,1.19,3.12,0.714,0.73,0.653,0.792,1.03,1.05
HDEPTYARSSK [PEAK1_Y616],0.576,0.92,0.819,1.01,1.03,0.785,1.29,0.389,0.864,0.679,0.918,0.478,0.57,0.519,0.321,0.575
HEKKAYSFCGT [RPS6KA3_Y226],0.808,0.999,0.729,0.695,1.8,1.73,0.65,1.51,0.725,0.725,1.49,0.703,0.989,1.09,1.18,1.68
HEPKGYNANFC [TGFB2_Y341],0.664,1.07,0.693,0.737,0.92,0.808,0.595,0.647,0.847,0.559,0.553,0.656,0.581,0.558,0.719,0.596
HFPFQYHRQLF [F12_Y53_YF],1.14,1.67,1.14,0.669,0.78,0.924,0.546,0.555,1.44,0.507,0.52,0.618,0.538,0.466,0.585,0.694
HGDDDYDDPEL [CLNK_Y69_S65G],0.565,0.99,0.551,1.39,2,1.91,0.477,0.91,0.745,0.667,0.743,0.756,0.717,0.69,0.753,1.02
HIAKVYRRDNP [HARS1_Y156],0.747,1.36,0.722,0.659,0.989,0.982,1.02,0.451,1.24,0.734,0.592,0.36,0.507,0.775,0.463,0.772
HITQVYGFFDE [PPP2CA_Y127_Q122H_YF],0.838,1.56,1.12,1.95,2.38,2.03,12.7,1.32,1.69,2.8,7.13,1.09,0.823,15.7,1.11,1.16
HLWRIYFDITD [MMP27_Y307_YF],0.491,0.877,0.695,1.52,1.81,1.39,0.462,0.973,1.27,0.366,0.739,1.15,0.531,0.532,0.771,1.19

# Now from value to sequence, other results behind:
SH2 binding enrichment [14],SH2 binding enrichment [15],SH2 binding enrichment [16],Sequence,phosphorylation enrichment [1],phosphorylation enrichment [2],phosphorylation enrichment [3],phosphorylation enrichment [4],phosphorylation enrichment [5],phosphorylation enrichment [6],phosphorylation enrichment [7],phosphorylation enrichment [8],phosphorylation enrichment [9],phosphorylation enrichment [10],phosphorylation enrichment [11],phosphorylation enrichment [12],phosphorylation enrichment [13]
0.781,0.931,0.587,GISDEYHMIRH [GCDH_Y398_V400M],0.575,0.714,1.07,0.735,7.6,0.491,0.349,0.891,0.446,0.402,0.58,0.522,4.43
0.568,0.789,0.521,GISDEYHVIWH [GCDH_Y398_R402W],1.34,1.17,2.07,1.09,7.06,0.818,0.391,1,1.46,0.649,0.837,1.1,4.61
0.535,1.03,0.825,GKFHMYVAVWT [F13A1_Y161_R159H],1.06,1.1,1.18,0.368,0.516,1.45,0.351,0.498,0.491,0.445,0.407,0.479,0.669
0.567,1.04,0.599,GLSDLYVKIHL [SYT2_Y309_P308L],1.38,1.45,1.26,0.495,0.452,0.94,0.428,0.613,0.826,0.705,0.623,0.615,0.804
0.435,0.663,0.751,GNEEAYGSSHI [FAM171B_Y522_R524S],0.718,0.817,0.763,0.549,0.48,0.866,0.526,0.489,0.465,0.4,0.521,0.525,0.518
0.474,0.698,0.601,GNLQENLTRHV [TGFBR2_Y336_Y336N],0.447,0.558,0.461,0.337,0.358,0.432,0.368,0.374,0.478,0.366,0.427,0.422,0.418
0.589,1.04,1.6,GQKTLYSFFSP [UNG_Y8],0.908,1.2,0.984,4.32,1.18,2.05,10.3,4.06,2.58,8.62,4.16,2.12,1.42
0.376,0.845,0.607,GREEFYSTHPH [LRRK2_Y1402],0.483,0.575,0.576,0.421,0.505,0.418,1.52,0.679,0.385,0.528,0.42,0.482,0.465
0.443,0.735,0.427,GRQGIYKENER [GPR143_Y231_T232K],0.515,0.722,0.627,0.436,0.441,0.555,0.738,0.484,0.322,0.407,0.371,0.375,0.428
2.01,0.84,0.673,GRRGQYVMLSE [TTC7A_Y396],0.573,0.586,0.692,0.549,0.506,0.565,0.673,0.512,0.431,0.45,0.546,0.494,0.532
0.563,0.844,0.64,GRSTFYWPRPR [GAGE12J_Y10_YF],0.644,0.602,0.831,0.501,0.48,0.573,0.538,0.713,0.446,0.463,0.474,0.472,0.47
0.294,0.919,0.837,GSIQQYIYKQE [PRG4_Y1271],0.811,0.644,0.651,0.752,0.507,0.486,0.433,0.439,0.425,0.398,0.522,0.567,0.539
0.465,0.793,0.642,GSTLSYGRDGR [MATR3_Y158_P154S],0.452,0.516,0.545,0.382,0.389,0.392,0.374,0.376,0.339,0.374,0.353,0.343,0.466
0.432,0.763,0.695,GTATAYLCGVK [ALPL_Y117],0.89,1.07,0.756,0.427,0.485,0.667,0.352,0.501,0.512,0.463,0.472,0.507,0.595
0.593,0.742,0.695,GTSLIYWILFT [G6PC3_Y214_T216I],1.59,1.56,1.18,2.67,1.17,1.43,1.46,1.74,1,0.55,2.42,0.749,1.38
1.06,0.944,1.27,GVYSRYFTTYD [CLCA1_Y661],1.07,1,1.35,4.77,0.571,0.955,3.71,3.33,1.12,0.573,4.58,1.25,0.729
0.366,0.812,0.495,HEEKVYLSRGD [CRACR2A_Y141],0.784,1.05,0.884,1.08,0.672,0.826,0.611,0.885,0.541,0.569,0.995,0.526,1.17
0.969,0.96,0.962,HEKRAYICAHP [ACAD9_Y611_L606H],1.3,0.77,0.742,0.448,0.543,0.59,0.439,0.49,0.454,0.593,0.447,0.434,0.548
0.563,0.808,0.448,HLDRSYSFSFS [PEAR1_Y890_R885H_YF],1.78,2.08,1.75,1.12,0.841,1.17,0.964,0.726,0.638,0.999,0.561,0.658,0.897
